Test results taken from patent publication EP1207198A1.

Molecular target: human brain-derived G protein-coupled receptor protein ZAQ (human)
Experiment: cell-based or functional assay

increase in the intracellular calcium ion concentration (FLIPR), EC50: 0.096 nM
Substance: Human type ZAQ ligand mature peptide (type G, 86 amino acid residues)
